Consider one protein from patent US20040266684.

In the series the target is T1, purified human Lys77-Plasminogen, P00747.
T1 chain: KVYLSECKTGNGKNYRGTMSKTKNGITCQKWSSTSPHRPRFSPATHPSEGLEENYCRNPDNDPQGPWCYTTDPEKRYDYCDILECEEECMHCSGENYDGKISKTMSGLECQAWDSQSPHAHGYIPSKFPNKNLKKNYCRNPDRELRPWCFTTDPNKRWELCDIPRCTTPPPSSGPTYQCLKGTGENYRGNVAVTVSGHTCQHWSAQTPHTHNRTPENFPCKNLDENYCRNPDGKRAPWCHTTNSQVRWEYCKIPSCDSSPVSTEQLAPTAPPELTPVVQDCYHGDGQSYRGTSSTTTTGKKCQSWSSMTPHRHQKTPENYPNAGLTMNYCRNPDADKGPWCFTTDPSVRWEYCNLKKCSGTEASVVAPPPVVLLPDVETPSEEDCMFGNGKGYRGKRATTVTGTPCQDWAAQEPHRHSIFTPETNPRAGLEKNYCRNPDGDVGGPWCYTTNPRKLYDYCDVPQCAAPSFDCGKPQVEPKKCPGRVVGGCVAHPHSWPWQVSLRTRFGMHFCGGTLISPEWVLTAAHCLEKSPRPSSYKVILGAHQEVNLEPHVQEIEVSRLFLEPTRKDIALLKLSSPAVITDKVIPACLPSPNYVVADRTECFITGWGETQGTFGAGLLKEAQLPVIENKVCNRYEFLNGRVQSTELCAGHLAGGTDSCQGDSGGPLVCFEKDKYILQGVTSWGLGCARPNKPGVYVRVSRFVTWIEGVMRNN

B1: thiolated streptokinase (protein)
chain: IAGPEWLLDRPSVNNSQLVVSVAGTVEGTNQDISLKFFEIDLTSRPAHGGKTEQGLSPKSKPFATDSGAMSHKLEKADLLKAIQEQLIANVHSNDDYFEVIDFASDATITDRNGKVYFADKDGSVTLPTQPVQEFLLSGHVRVRPYKEKPIQNQAKSVDVEYTVQFTPLNPDDDFRPGLKDTKLLKTLAIGDTITSQELLAQAQSILNKNHPGYTIYERDSSIVTHDNDIFRTILPMDQEFTYRVKNREQAYRINKKSGLNEEINNTDLISEKYYVLKKGEKPYDPFDRSHLKLFTIKYVDVDTNELLKSEQLLTASERNLDFRDLYDPRDKAKLLYNNLDAFGIMDYTLTGKVEDNHDDTNRIITVYMGKRPEGENASYHLAYDKDRYTEEEREVYSYLRYTGTPIPDNPNDK
Take B1: the “plasmin generated in the plasminogen activation assay (S-2251 substrate units)” value was “thiolated SK (1 nM) generated plasmin at a nearly linear of 4225 SU/ml”.
